Substitutions are numbered along the chain they refer to.
How the values were obtained:
[1] = molecular target: T1, CasX variant 438 (synthetic construct); assay: cleavage_in_vitro
T1 chain: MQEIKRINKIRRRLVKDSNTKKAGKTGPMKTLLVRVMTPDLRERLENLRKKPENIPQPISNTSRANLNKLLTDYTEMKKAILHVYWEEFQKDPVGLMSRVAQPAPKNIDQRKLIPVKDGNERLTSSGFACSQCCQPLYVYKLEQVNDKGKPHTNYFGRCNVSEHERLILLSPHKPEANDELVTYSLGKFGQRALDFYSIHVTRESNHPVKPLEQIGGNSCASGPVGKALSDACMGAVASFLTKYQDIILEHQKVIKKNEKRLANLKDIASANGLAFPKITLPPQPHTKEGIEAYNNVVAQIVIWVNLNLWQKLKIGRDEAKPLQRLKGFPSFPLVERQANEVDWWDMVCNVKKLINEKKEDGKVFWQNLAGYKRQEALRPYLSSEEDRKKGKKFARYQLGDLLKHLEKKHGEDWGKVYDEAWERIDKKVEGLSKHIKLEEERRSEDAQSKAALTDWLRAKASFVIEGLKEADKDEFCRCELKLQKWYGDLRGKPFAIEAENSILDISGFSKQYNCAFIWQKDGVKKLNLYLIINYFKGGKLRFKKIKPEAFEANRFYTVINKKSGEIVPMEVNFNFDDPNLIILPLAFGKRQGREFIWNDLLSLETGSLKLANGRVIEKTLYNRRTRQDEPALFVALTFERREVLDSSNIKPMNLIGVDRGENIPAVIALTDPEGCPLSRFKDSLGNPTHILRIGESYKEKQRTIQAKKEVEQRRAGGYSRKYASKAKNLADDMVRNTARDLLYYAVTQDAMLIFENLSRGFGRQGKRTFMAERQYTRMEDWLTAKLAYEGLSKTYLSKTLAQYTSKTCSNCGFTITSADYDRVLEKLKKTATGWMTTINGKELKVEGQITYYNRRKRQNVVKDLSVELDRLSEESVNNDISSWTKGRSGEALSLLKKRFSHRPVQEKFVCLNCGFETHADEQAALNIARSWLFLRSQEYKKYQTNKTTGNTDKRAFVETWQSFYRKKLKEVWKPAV

[2] = molecular target: T2, CasX variant 119 (synthetic construct); assay: cleavage_in_vitro
T2 chain: T1 chain with L399F, K404L, V658I, R856Y

B1: gRNA scaffold 174 + spacer 7.37 ; 7.37 TTC PAM target (ssRNA ; dsDNA)
RNA: ACUGGCGCUUUUAUCUGAUUACUUUGAGAGCCAUCACCAGCGACUAUGUCGUAGUGGGUAAAGCUCCCUCUUCGGAGGGAGCAUCAAAGGGGCCGAGAUGUCUCGCUCC
DNA 1: TGAAGCTGACAGCATTCGGGCCGAGATGTCTCGCTCCGTGGCCTTAGCTGTGCTCGCGCT
DNA 2: AGCGCGAGCACAGCTAAGGCCACGGAGCGAGACATCTCGGCCCGAATGCTGTCAGCTTCA
For B1, the activity [1] was 4.94 min⁻¹ and the activity [2] was 8.33 min⁻¹.
